Like-named read-outs stand apart in the source and are kept apart here.
Legend:
Test in all cases: ELISA
[1] = biological target: T1, misfolded (denatured) human SOD1 (human, UniProt P00441)
[2] = biological target: T1, misfolded (denatured) human SOD1; remark: listed apart in the source
[3] = biological target: T1, misfolded (denatured) human SOD1; remark: listed apart in the source

T1 sequence (P00441 2-154): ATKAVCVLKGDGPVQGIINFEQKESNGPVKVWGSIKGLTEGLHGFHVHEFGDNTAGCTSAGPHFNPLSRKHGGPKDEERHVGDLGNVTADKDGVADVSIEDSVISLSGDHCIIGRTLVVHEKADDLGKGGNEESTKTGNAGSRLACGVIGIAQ

| EC50 [1] [nM] | EC50 [2] [nM] | EC50 [3] [nM] | Binder |
| --- | --- | --- | --- |
| 2.4 | – | – | Degly-natZr-DFO-AP-101 (antibody, V domains shown, EndoS2 deglycosylated, DFO conjugated on lysines (0.6:1.0), natZr labelled) VH: QVQLVQSGAEVKKPGASVTLSCKASGYTFTAYYIHWVRQAREQGLEWMGVINPSTGTTFYAQNFPDRVSVTRDTSTSTVFMELHNLKSEDTAVYYCARAISEHGSGSYSPYYWGQGTLVTVSS VL: SYELTQPPSVSVSLGQMAAITCSGEALPKKYGYWYQQKPGQVPVLLIYRDVERPSGVPDRFSGSSSGTMVTLTISGVQAEDEADYYCLSADSSGTWVFGGGTKLTVLG |
| 0.3 | 0.5 | – | natZr-DFO-AP-101 (antibody, V domains shown, DFO chelator conjugated on lysines (DFO:antibody 1.1:1.0), natZr labelled) VH: QVQLVQSGAEVKKPGASVTLSCKASGYTFTAYYIHWVRQAREQGLEWMGVINPSTGTTFYAQNFPDRVSVTRDTSTSTVFMELHNLKSEDTAVYYCARAISEHGSGSYSPYYWGQGTLVTVSS VL: SYELTQPPSVSVSLGQMAAITCSGEALPKKYGYWYQQKPGQVPVLLIYRDVERPSGVPDRFSGSSSGTMVTLTISGVQAEDEADYYCLSADSSGTWVFGGGTKLTVLG |
| – | – | 0.2 | AP-101 (non-modified alpha-miSOD1) (antibody, V domains shown) VH: QVQLVQSGAEVKKPGASVTLSCKASGYTFTAYYIHWVRQAREQGLEWMGVINPSTGTTFYAQNFPDRVSVTRDTSTSTVFMELHNLKSEDTAVYYCARAISEHGSGSYSPYYWGQGTLVTVSS VL: SYELTQPPSVSVSLGQMAAITCSGEALPKKYGYWYQQKPGQVPVLLIYRDVERPSGVPDRFSGSSSGTMVTLTISGVQAEDEADYYCLSADSSGTWVFGGGTKLTVLG |
